Source: FireProtDB (doi:10.1021/bi034721x)
Values joined by “and” are separate entries in the source; they are usually repeats but may differ in a detail not shown here. Equal values may be shown once.

Conditions: Rattus norvegicus; pH 7.4; Thermal; DSC; sodium phosphate 10 mM; NaCl 0.20 M; whole UniProt chain shown

B1: Parvalbumin alpha wild type, P02625 (protein)
chain: MSMTDLLSAEDIKKAIGAFTAADSFDHKKFFQMVGLKKKSADDVKKVFHILDKDKSGFIEEDELGSILKGFSSDARDLSAKETKTLMAAGDKDGDGKIGVEEFSTLVAES
Question: For B1, which “unfolding enthalpy (calorimetric)” value is on record?
Answer: 76 kcal/mol and 72 kcal/mol and 52 kcal/mol
